Laboratory results published in US20050208585A1 (published 2005).

T1: human c-mpl (thrombopoietin receptor) on HU-03 cells and human platelets (human, UniProt P40238 26-635)
T1 sequence (looked up): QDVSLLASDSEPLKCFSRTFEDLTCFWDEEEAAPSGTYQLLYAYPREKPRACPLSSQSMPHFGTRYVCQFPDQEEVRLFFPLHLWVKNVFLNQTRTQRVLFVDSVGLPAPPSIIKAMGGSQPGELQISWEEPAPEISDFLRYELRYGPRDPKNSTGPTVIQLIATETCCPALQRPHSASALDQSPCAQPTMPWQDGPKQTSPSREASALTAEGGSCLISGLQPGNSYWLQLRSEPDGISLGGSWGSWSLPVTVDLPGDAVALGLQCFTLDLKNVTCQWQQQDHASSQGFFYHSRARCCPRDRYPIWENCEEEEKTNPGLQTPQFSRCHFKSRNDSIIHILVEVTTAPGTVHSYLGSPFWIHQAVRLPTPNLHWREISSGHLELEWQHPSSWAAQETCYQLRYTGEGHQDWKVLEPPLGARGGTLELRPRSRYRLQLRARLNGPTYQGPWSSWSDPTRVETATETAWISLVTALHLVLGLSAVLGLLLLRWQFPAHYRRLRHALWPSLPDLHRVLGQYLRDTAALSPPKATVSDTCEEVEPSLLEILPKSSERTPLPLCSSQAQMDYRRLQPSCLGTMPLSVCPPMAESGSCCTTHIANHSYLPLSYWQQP

T2: mpl-Ig (UniProt P40238 26-491)
T2 construct: From conditioned media of mpl-Ig-transfected 293 cells, captured on rabbit anti-human IgG Fc; also called mpl-IgG; not shown: Ig part, captured by anti-human IgG Fc
T2 sequence (looked up): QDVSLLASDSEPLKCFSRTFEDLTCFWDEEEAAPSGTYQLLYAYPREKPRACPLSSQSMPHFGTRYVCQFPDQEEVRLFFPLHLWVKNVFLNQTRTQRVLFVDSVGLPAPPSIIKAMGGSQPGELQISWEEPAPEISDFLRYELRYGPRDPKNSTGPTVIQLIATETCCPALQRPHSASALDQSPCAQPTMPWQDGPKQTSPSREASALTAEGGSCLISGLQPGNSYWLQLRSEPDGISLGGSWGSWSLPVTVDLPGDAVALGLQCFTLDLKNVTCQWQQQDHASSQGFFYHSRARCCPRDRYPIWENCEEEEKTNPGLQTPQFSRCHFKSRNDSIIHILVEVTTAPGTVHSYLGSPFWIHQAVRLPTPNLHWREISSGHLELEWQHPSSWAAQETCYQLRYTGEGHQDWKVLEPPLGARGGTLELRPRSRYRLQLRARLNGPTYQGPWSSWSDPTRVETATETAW

B1: 12B5 Fab (Fab, from another filing)
scFv: MAQVQLVQSGGGLVRPGGSLSLSCAVSGITLRTYGMHWVRQAPGKGLEWVAGISFDGRSEYYADSVQGRFTISRDSSKNTLYLQMNSLRAEDTAVYYCARGAHYGFDIWGQGTMVTVSSGGGGTGGGGSGGGGSDIQMTQSPSTLSASIGDRVTITCRASEGIYHWLAWYQQKPGKAPKLLIYKASSLASGAPSRFSGSGSGTDFTLTISSLQPDDFATYYCQQYSNYPLTFGGGTELEIKRAA
B2: 12B5 scFv (scFv)
chain: B1 scFv
B3: 12E10 scFv (scFv)
chain: MAQVQLQQSGPGLVKPSETLSLTCTVSGDSISSYYWSWIRQPPGKGLEWIGYIYYSGSTNYNPSLKSRVTISVDTSKSQFSLKLSSVTAADTAVYYCARGRYFDVWGRGTMVTVSSGGGGSGGGGSGGGGSSYVLTQPPSVSGSPGQSITISCTGTSSDVGGYNYVSWYQQHPGKAPKLMIYEGSKRPSGVSNRFSGSKSGNTASLTISGLQAEDEADYYCSSYTTRSTRVFGGGTKLTVLGAA
B4: 12D5 Fab (Fab, V domains shown)
VH: QVQLVESGGGLVKPGGSLRLSCAASGFTFSSHNMNWVRQAPGKGLEWVSSISSSSSYIYYADSVKGRFTISRDNAKNSLYLQMNSLRAEDTAVYYCARDRGSTGMDVWGRGTLVTVSS
VL: DIVMTQSPSTLSASIGDRVTITCRASEGIYHWLAWYQQKPGKAPKLLIYKASSLASGAPSRFSGSGSGTDFTLTISSLQPDDFATYYCQQYSNYPLTFGGGTELEIKR
B5: 12D5 IgG (antibody, V domains shown)
VH: B4 VH
VL: B4 VL
B6: 12B5 IgG (antibody, V domains shown)
VH: QVQLVQSGGGLVRPGGSLSLSCAVSGITLRTYGMHWVRQAPGKGLEWVAGISFDGRSEYYADSVQGRFTISRDSSKNTLYLQMNSLRAEDTAVYYCARGAHYGFDIWGQGTMVTVSS
VL: B4 VL

Key:
[1] = target: human c-mpl (thrombopoietin receptor) on HU-03 cells and human platelets (human) (UniProt P40238); assay: cell-based or functional assay
[2] = target: mpl-Rse.gD chimeric receptor (human, UniProt P40238 26-491); assay: cell-based or functional assay
[3] = target: human c-mpl (thrombopoietin receptor) on HU-03 cells and human platelets (human) (UniProt P40238); assay: competition with 100 pM 125I-TPO for binding to HU-03 cells
[4] = target: T1, human c-mpl (thrombopoietin receptor) …; assay: cell-based or functional assay
[5] = target: T1, human c-mpl (thrombopoietin receptor) …; assay: competition with 100 pM 125I-TPO for binding to HU-03 cells
[6] = target: T1, human c-mpl (thrombopoietin receptor) …; assay: competition with 100 pM 125I-TPO for binding to human platelets
[7] = target: T2, mpl-Ig; assay: TPO receptor-binding inhibition ELISA: biotinylated TPO on captured mpl-Ig

Row | Binder | Hu3 Proliferation (ED50) [1] [nM] | KIRA (ED50) [2] [nM] | IC50 [3] [nM] | Hu3 Proliferation (ED50) [4] [nM] | IC50 [5] [nM] | IC50 [6] [nM] | IC50 [7] [nM]
1 | B1 | > 1000 | 3 | 900 |  |  |  | 
2 | B2 |  | 1 |  | 0.02 | 10 | 100 | 17
3 | B3 |  |  |  | 0.005 | 5 | 5 | 1.6
4 | B4 |  | 4 |  |  | 500 |  | 1000
5 | B5 |  | 3 |  |  | 10 | 500 | 0.45
6 | B6 |  |  |  | 0.03 | 10 | 300 | 0.152
